The results in this text go back to article PMC9177699, “Dynamic interplay between the periplasmic chaperone SurA and the BAM complex in outer membrane protein folding” (Communications Biology, 2022).

For test [1], the target named is T1, β-barrel assembly machinery (BAM) complex, BamABCDE (E. coli, UniProt P0A940 21-810; P77774 20-392; P0A903 25-344; P0AC02 20-245; P0A937 20-113). Briefly: cell-based or functional assay.
For test [2], the target named is T1, β-barrel assembly machinery (BAM) …. Put plainly: MST; BAM reconstituted in proteoliposomes of E. coli polar lipid extract titrated (25 µM–1 nM) against 400 nM Alexa Fluor 488-labelled SurA variant; TBS pH 8.0, 25 °C; 1:1 quadratic binding model. As to conditions: both partners purified.
The target is the same in test [3]. Put plainly: MST; BAM in DDM micelles titrated (1.6 nM–52 μM) against 400 nM Alexa Fluor 488-labelled Cys-SurA variant; 0.02% (v/v) DDM, 150 mM NaCl, 20 mM Tris–HCl, pH 8, 25 °C; 1:1 quadratic binding model. As to conditions: both partners purified.
Test [4] deals with BAM complex (BamABCDE) (E. coli, UniProt P0A940 21-810; P77774 20-392; P0A903 25-344; P0AC02 20-245; P0A937 20-113). Put plainly: MST; 400 nM Alexa Fluor 488-labelled SurA variant, BAM complex titrated 25 µM-1 nM in proteoliposomes of E. coli polar lipid extract, 150 mM NaCl, 20 mM Tris-HCl, pH 8.0, 25 °C; BAM concentration taken as 50 % of the total for fitting; 1:1 quadratic binding model. Particulars: both partners purified.

B1: SurA-WT (wild-type SurA, residues 21-428, His-tag cleaved) (natural protein)
chain: APQVVDKVAAVVNNGVVLESDVDGLMQSVKLNAAQARQQLPDDATLRHQIMERLIMDQIILQMGQKMGVKISDEQLDQAIANIAKQNNMTLDQMRSRLAYDGLNYNTYRNQIRKEMIISEVRNNEVRRRITILPQEVESLAQQVGNQNDASTELNLSHILIPLPENPTSDQVNEAESQARAIVDQARNGADFGKLAIAHSADQQALNGGQMGWGRIQELPGIFAQALSTAKKGDIVGPIRSGVGFHILKVNDLRGESKNISVTEVHARHILLKPSPIMTDEQARVKLEQIAADIKSGKTTFAAAAKEFSQDPGSANQGGDLGWATPDIFDPAFRDALTRLNKGQMSAPVHSSFGWHLIELLDTRNVDKTDAAQKDRAYRMLMNRKFSEEAASWMQEQRASAYVKILSN
Turning to B1, in test [1], the “rate of BAM-mediated folding of tOmpA into proteoliposomes (cold SDS–PAGE), without SurA-WT against with 10 μM SurA-WT” value is approximately 6 fold.

B2: Alexa Fluor 488-labelled Cys-SurA-∆P2 (domain or fragment)
chain: CAPQVVDKVAAVVNNGVVLESDVDGLMQSVKLNAAQARQQLPDDATLRHQIMERLIMDQIILQMGQKMGVKISDEQLDQAIANIAKQNNMTLDQMRSRLAYDGLNYNTYRNQIRKEMIISEVRNNEVRRRITILPQEVESLAQQVGNQNDASTELNLSHILIPLPENPTSDQVNEAESQARAIVDQARNGADFGKLAIAHSADQQALNGGQMGWGRIQELPGIFAQALSTAKKGDIVGPIRSGVGFHILKVNDLRGESKNIDAAQKDRAYRMLMNRKFSEEAASWMQEQRASAYVKILSN
modifications: Alexa Fluor 488 on the added N-terminal cysteine (maleimide)
notes: cysteine residue added immediately following the TEV cleavage site; numbers are the gene numbering (including the signal peptide); A G of the TEV site probably precedes the added cysteine after cleavage (surmised); not shown: His6, N-terminal, cleaved
As for B2, the binding result in test [2] is “binds”.

B3: Alexa Fluor 488-labelled Cys-SurA-core (domain or fragment)
chain: CAPQVVDKVAAVVNNGVVLESDVDGLMQSVKLNAAQARQQLPDDATLRHQIMERLIMDQIILQMGQKMGVKISDEQLDQAIANIAKQNNMTLDQMRSRLAYDGLNYNTYRNQIRKEMIISEVRNNEVRRRITILPQEVESLAQQVGNQNDASDAAQKDRAYRMLMNRKFSEEAASWMQEQRASAYVKILSN
modifications: Alexa Fluor 488 on the added N-terminal cysteine (maleimide)
notes: as for B2
B3 came in with a Kd in test [3] of 1300 ± 300 nM.

B4: Alexa Fluor 488-labelled Cys-SurA-core (domain or fragment)
chain: GCAPQVVDKVAAVVNNGVVLESDVDGLMQSVKLNAAQARQQLPDDATLRHQIMERLIMDQIILQMGQKMGVKISDEQLDQAIANIAKQNNMTLDQMRSRLAYDGLNYNTYRNQIRKEMIISEVRNNEVRRRITILPQEVESLAQQVGNQNDASDAAQKDRAYRMLMNRKFSEEAASWMQEQRASAYVKILSN
modifications: Alexa Fluor 488 (C5 maleimide) on the added N-terminal cysteine
notes: glycine left after TEV cleavage (ENLYFQG) and the cysteine added immediately following the TEV cleavage site; the order G-C is worked out from the text; gene numbering including the signal peptide; not shown: His6, N-terminal, cleaved
Molecule B4 displayed a Kd in test [4] of 700 nM.

B5: SurA-∆P2 (SurA 21-428 without residues 281-389, His-tag cleaved) (domain or fragment)
chain: APQVVDKVAAVVNNGVVLESDVDGLMQSVKLNAAQARQQLPDDATLRHQIMERLIMDQIILQMGQKMGVKISDEQLDQAIANIAKQNNMTLDQMRSRLAYDGLNYNTYRNQIRKEMIISEVRNNEVRRRITILPQEVESLAQQVGNQNDASTELNLSHILIPLPENPTSDQVNEAESQARAIVDQARNGADFGKLAIAHSADQQALNGGQMGWGRIQELPGIFAQALSTAKKGDIVGPIRSGVGFHILKVNDLRGESKNIDAAQKDRAYRMLMNRKFSEEAASWMQEQRASAYVKILSN
Consider B5, for which, in test [1], the “rate of BAM-catalysed folding of tOmpA into proteoliposomes (cold SDS–PAGE), with SurA-∆P2 against SurA-WT” value was approximately 3 fold.

B6: Alexa Fluor 488-labelled Cys-SurA-∆P2 (domain or fragment)
chain: GCAPQVVDKVAAVVNNGVVLESDVDGLMQSVKLNAAQARQQLPDDATLRHQIMERLIMDQIILQMGQKMGVKISDEQLDQAIANIAKQNNMTLDQMRSRLAYDGLNYNTYRNQIRKEMIISEVRNNEVRRRITILPQEVESLAQQVGNQNDASTELNLSHILIPLPENPTSDQVNEAESQARAIVDQARNGADFGKLAIAHSADQQALNGGQMGWGRIQELPGIFAQALSTAKKGDIVGPIRSGVGFHILKVNDLRGESKNIDAAQKDRAYRMLMNRKFSEEAASWMQEQRASAYVKILSN
modifications: Alexa Fluor 488 (C5 maleimide) on the added N-terminal cysteine
notes: as for B4
B6 showed a Kd in test [4] of 1200 nM.

B7: Alexa Fluor 488-labelled Cys-SurA-WT (natural protein)
chain: CAPQVVDKVAAVVNNGVVLESDVDGLMQSVKLNAAQARQQLPDDATLRHQIMERLIMDQIILQMGQKMGVKISDEQLDQAIANIAKQNNMTLDQMRSRLAYDGLNYNTYRNQIRKEMIISEVRNNEVRRRITILPQEVESLAQQVGNQNDASTELNLSHILIPLPENPTSDQVNEAESQARAIVDQARNGADFGKLAIAHSADQQALNGGQMGWGRIQELPGIFAQALSTAKKGDIVGPIRSGVGFHILKVNDLRGESKNISVTEVHARHILLKPSPIMTDEQARVKLEQIAADIKSGKTTFAAAAKEFSQDPGSANQGGDLGWATPDIFDPAFRDALTRLNKGQMSAPVHSSFGWHLIELLDTRNVDKTDAAQKDRAYRMLMNRKFSEEAASWMQEQRASAYVKILSN
modifications: Alexa Fluor 488 on the added N-terminal cysteine (maleimide)
notes: cysteine residue added immediately following the TEV cleavage site; numbers are the gene numbering (including the signal peptide); A G of the TEV site probably precedes the added cysteine after cleavage (surmised); also called Alexa Fluor 488-labelled SurA; not shown: His6, N-terminal, cleaved
B7 showed a dissociation constant Kd in test [3] of 2600 ± 200 nM.

B8: Alexa Fluor 488-labelled Cys-SurA-WT (natural protein)
chain: GCAPQVVDKVAAVVNNGVVLESDVDGLMQSVKLNAAQARQQLPDDATLRHQIMERLIMDQIILQMGQKMGVKISDEQLDQAIANIAKQNNMTLDQMRSRLAYDGLNYNTYRNQIRKEMIISEVRNNEVRRRITILPQEVESLAQQVGNQNDASTELNLSHILIPLPENPTSDQVNEAESQARAIVDQARNGADFGKLAIAHSADQQALNGGQMGWGRIQELPGIFAQALSTAKKGDIVGPIRSGVGFHILKVNDLRGESKNISVTEVHARHILLKPSPIMTDEQARVKLEQIAADIKSGKTTFAAAAKEFSQDPGSANQGGDLGWATPDIFDPAFRDALTRLNKGQMSAPVHSSFGWHLIELLDTRNVDKTDAAQKDRAYRMLMNRKFSEEAASWMQEQRASAYVKILSN
modifications: Alexa Fluor 488 (C5 maleimide) on the added N-terminal cysteine
notes: as for B4
Molecule B8 had a Kd in test [4] of 600 nM.

B9: Alexa Fluor 488-labelled Cys-SurA-∆P1 (domain or fragment)
chain: CAPQVVDKVAAVVNNGVVLESDVDGLMQSVKLNAAQARQQLPDDATLRHQIMERLIMDQIILQMGQKMGVKISDEQLDQAIANIAKQNNMTLDQMRSRLAYDGLNYNTYRNQIRKEMIISEVRNNEVRRRITILPQEVESLAQQVGNQNDASSVTEVHARHILLKPSPIMTDEQARVKLEQIAADIKSGKTTFAAAAKEFSQDPGSANQGGDLGWATPDIFDPAFRDALTRLNKGQMSAPVHSSFGWHLIELLDTRNVDKTDAAQKDRAYRMLMNRKFSEEAASWMQEQRASAYVKILSN
modifications: Alexa Fluor 488 on the added N-terminal cysteine (maleimide)
notes: cysteine residue added immediately following the TEV cleavage site; numbers are the gene numbering (including the signal peptide); A G of the TEV site probably precedes the added cysteine after cleavage (surmised); also called SurA-ΔP1; not shown: His6, N-terminal, cleaved
Take B9: the binding result in test [2] was “binds”.

B10: Alexa Fluor 488-labelled Cys-SurA-∆P1 (domain or fragment)
chain: GCAPQVVDKVAAVVNNGVVLESDVDGLMQSVKLNAAQARQQLPDDATLRHQIMERLIMDQIILQMGQKMGVKISDEQLDQAIANIAKQNNMTLDQMRSRLAYDGLNYNTYRNQIRKEMIISEVRNNEVRRRITILPQEVESLAQQVGNQNDASSVTEVHARHILLKPSPIMTDEQARVKLEQIAADIKSGKTTFAAAAKEFSQDPGSANQGGDLGWATPDIFDPAFRDALTRLNKGQMSAPVHSSFGWHLIELLDTRNVDKTDAAQKDRAYRMLMNRKFSEEAASWMQEQRASAYVKILSN
modifications: Alexa Fluor 488 (C5 maleimide) on the added N-terminal cysteine
notes: as for B4
Regarding B10, the dissociation constant Kd in test [4] came out at 600 nM.

One may read the Kd as the equilibrium constant for the complex coming apart. The low end stands for higher affinity, the high end for lower affinity.
